Measured values: IntAct's records for PubMed 25040622

B1: Proline-serine-threonine phosphatase-interacting protein 1 (Homo sapiens), O43586 (parent)
chain: MMPQLQFKDAFWCRDFTAHTGYEVLLQRLLDGRKMCKDMEELLRQRAQAEERYGKELVQIARKAGGQTEINSLRASFDSLKQQMENVGSSHIQLALTLREELRSLEEFRERQKEQRKKYEAVMDRVQKSKLSLYKKAMESKKTYEQKCRDADDAEQAFERISANGHQKQVEKSQNKARQCKDSATEAERVYRQSIAQLEKVRAEWEQEHRTTCEAFQLQEFDRLTILRNALWVHSNQLSMQCVKDDELYEEVRLTLEGCSIDADIDSFIQAKSTGTEPPAPVPYQNYYDREVTPLTSSPGIQPSCGMIKRFSGLLHGSPKTTSLAASAASTETLTPTPERNEGVYTAIAVQEIQGNPASPAQEYRALYDYTAQNPDELDLSAGDILEVILEGEDGWWTVERNGQRGFVPGSYLEKL
partner: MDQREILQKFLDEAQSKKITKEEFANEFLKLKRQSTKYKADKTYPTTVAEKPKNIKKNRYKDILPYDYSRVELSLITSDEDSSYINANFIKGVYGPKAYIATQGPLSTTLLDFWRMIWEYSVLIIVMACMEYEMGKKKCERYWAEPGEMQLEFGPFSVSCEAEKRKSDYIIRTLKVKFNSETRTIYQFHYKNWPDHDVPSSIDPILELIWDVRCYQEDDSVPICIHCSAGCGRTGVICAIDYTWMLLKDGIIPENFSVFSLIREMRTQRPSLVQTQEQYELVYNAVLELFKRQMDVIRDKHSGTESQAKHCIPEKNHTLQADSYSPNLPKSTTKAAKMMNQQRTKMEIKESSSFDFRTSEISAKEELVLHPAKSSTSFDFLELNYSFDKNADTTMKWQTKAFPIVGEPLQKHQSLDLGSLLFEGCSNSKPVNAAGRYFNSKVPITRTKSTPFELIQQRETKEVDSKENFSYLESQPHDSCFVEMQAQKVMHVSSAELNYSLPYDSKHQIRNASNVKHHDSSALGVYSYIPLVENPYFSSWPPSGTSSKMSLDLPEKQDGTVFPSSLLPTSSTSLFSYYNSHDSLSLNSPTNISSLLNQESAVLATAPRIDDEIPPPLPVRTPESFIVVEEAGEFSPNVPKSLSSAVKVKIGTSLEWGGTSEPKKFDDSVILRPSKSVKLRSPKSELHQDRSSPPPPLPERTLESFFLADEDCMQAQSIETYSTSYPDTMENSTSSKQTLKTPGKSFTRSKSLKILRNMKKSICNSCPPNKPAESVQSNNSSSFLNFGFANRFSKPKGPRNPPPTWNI

Variants of: B1
Conditions: with ptn22_human PTPN22, Q9Y2R2

Variant	effect of a mutation on the interaction
W232A	disrupting interaction

Variants of: B1
Conditions: with ptn22_human PTPN22, Q9Y2R2
Remark: another data set of the same source

Variant	effect of a mutation on the interaction
E250Q	disrupting interaction
